Results taken from paper PMC8038991 (2021).
Ends that are not written are not given here.

B1: HIFS (peptide)
chain: HIFS
B2: RIFS tetrapeptide (Nt-Arg) (peptide)
peptide: RIFS
modifications: also: two Zn2+ ions bound
B3: KIFS (peptide)
chain: KIFS
B4: WIFS (peptide)
chain: WIFS
B5: YIFS tetrapeptide (Nt-Tyr) (peptide)
peptide: YIFS
modifications: also: two Zn2+ ions bound

What was measured:
[1] = target: purified wild type ZZ fragment p62 (122-175) of the ITC table (Fig. 3b) (human, UniProt Q13501 122-175); assay: ITC
[2] = target: N132Q ZZ fragment p62 (122-175) (Homo sapiens); assay: ITC
Sequence of N132Q ZZ fragment p62 (122-175) (Homo sapiens) (chain, as listed by the source N132Q): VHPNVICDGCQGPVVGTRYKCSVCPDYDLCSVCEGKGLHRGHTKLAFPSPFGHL

Binder	Kd [1]	Kd [2]
B1	300 µM	–
B2	–	21.4 µM
B3	51.8 µM	–
B4	374 µM	–
B5	–	143 µM
